Laboratory results reported in the nanobody polyreactivity screen of Harvey et al. (2022).

Test: yeast display, Sf9 membrane polyspecificity reagent, FACS + sequencing; frameworks hold sequencing errors
Summary of the method: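 Nanobodies from a synthetic yeast display library (Saccharomyces cerevisiae BJ5465), induced 36–48 hours with galactose, were stained 1 hour at 4 °C with 10% biotinylated, detergent-solubilized Sf9 membrane reagent, enriched on streptavidin microbeads, then FACS-sorted. Anti-HA (expression) and streptavidin (reagent binding) fluorescence set low and high (top ~1%) gates. Polyreactivity labels come from the gate of origin. Genes were colony-PCR amplified, MiSeq 2 × 250 sequenced and filtered by CDR length.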

Sequence | polyreactivity (PSR sort gate)
QVQLVESGGGLVHAGGSLRLSCAASGYTFPLYAMGWYRQAPGKERELVAGINWRGGSTYYADSVKCRFTISRDNAKNTVYLQIKSLKPEDTAVYYCAADFSRYYTGGYDYWGQGTQVTVSS | low polyreactivity
QVQLVESGGGLVQAGGSLRLSCAASGSIFTRYAMGWYRQAPGKERELVADIRTRGGGTYYADSVKGRFTISRDTAKNTVYLQMNSLKPEDTAVYYCAKLWYHVYGSSPYGYWGQGTQVTVSS | high polyreactivity
QVQLVESGGGLFQAGGSILLSCPASGSTFDNYSMGWYRQAPGKERELVAGISWSGGSTFYADSVKGRFTISRDNAKYTVYLQMNSLKTEDTAVYYCAARIRYLDVRDNDNYYWGQGTQVTVSS | low polyreactivity
QVQLVESGVGLVQAGGSLRLSCAASGRTFSYYAMGWSRQAPGKERELVAAITSSGGSTYYADSVKGRFTISRDNAKNTVYLQMNSLKPEDTAVYYCAAEIWYYLWTTFERKYDYWGQGTQVTVSS | low polyreactivity
QVQLVESGGGLDQAVGSLRLSCAASGSIFKPYAMGWYRQAPGKERELVAGITAGGGSTYYADSVKGRFTISRDNAKNTVYLQMNSLKPEDTAVYYCSVDPYNIFTDDIVENDYWGQGTQVTVSS | low polyreactivity
QVKLVESGGGLVQAGGSLRLSCAASGRTFPRYAMGWYRQAPGKERELVAVIYGGGTYYADSVKGRFTISRDNAKNTVYLQMNSLKPEDTSVYYCNARSYQSARFRGGYWGQGTQVTVSS | high polyreactivity
QVQLVESGGGLVQAGGSLRLSCAASGFTFWLYAMGWYRQAPGKERELVAAISRNSVSTYYADSVKGRFTISRDNAKNTVYLQMNSLKPEDTAVYYCAVDQYATDDYWGQGTQVTVSS | high polyreactivity
QVQLVESGGGVVQAGGSLRLSCAASGSTFDVYAMGWYRPAPGKERELVAAITSGGTTNYADSVKGRFTISRDNAQNTVYLQLNSLKPEDTAVYYCAADSPWGGGYFVLYNYWGQGTQVTVSS | low polyreactivity
QDQLVESGGGLVQAGGSLRLSCAASGSTFSGYGMGWYRQAPGKERELVAAITSSGGRTYYADSVKGRFTISRDNAKNTVYLQMNSLKPEDTAVYYCAALYYHEYDYWGQGTQVTVSS | low polyreactivity
QVQLVESGGGLVQAGGSLRLSCAASGYIFGVYAMGWYRQAPGKERELVAVISSGDRTNYADSVKGRFTISRDNAKNTVYLQMNSLKPEDTAVYYCAADGRSPSYYGYDHWGQGTQVTVSS | low polyreactivity
QVQLVESGGGLVQAGGSLRLICAASGRTFYLYAMGWYRQAPGKERELVASITKSGGSTYYADSVKGRFTISRDNAKNTVYLQMNSLKPEDTAVYYCATDGRWRLAGAFTGKRRTYDYWGQGTQVTVSS | low polyreactivity
QVQLVESGGGLVQAGGSLRLSCAASGRIFVPYVMGWYRQAPGKERELVASISDSDTSTYYADSVKGRFTISRDNATNTVYLQMNSLKPEDTAVYYCNVDYWGQGTQVTVSS | low polyreactivity
QVHLVESGGGLDQAGGSLRLSSAASGSIFDKYAMVWYRQAPGKERELVAAITSGGRTYYADSVKGRFTISRDNAKNTVYLQMNSLKPEDTAVYYCAAGARRSYYPSQYYYWGQGTQVTVSS | low polyreactivity
QVQLVESGGGLVQAGGSLRLICAASGFIFSYYAMGWYRQAPGKERELVAAISKTGGNTYYADSVKGRFTISRDYAKNTVYLQMNSLKPEDTAVYYCNALRGDWRDMGYWGQGTQVTVSS | high polyreactivity
QVQLVESGGGLVQAGGSLRLTCAASGSIFSYYAMGWYRQAPGKERELVAAITSGGGTYYADSVKGRFTISRDNAKNTVFLQMNSLKPEDTAVYYCAKDGYPDQDVQVFNDSDYWGQGTQVTVSS | low polyreactivity
QVQLVESRGGLVQAGGSLRLSCAASGSIFYSNFMGWYRPAPGKERELVARITDAGSTNYADSVKGRFTISRDNAKNTVYLQMNSQKPEDTAVYYCNARLVIYTYDYWGQGTQVTVSS | low polyreactivity

Sequence | polyreactivity (PSR sort gate)
QVQLVESGGGLVQAGGSLRLSCAASGFTFRYYAMGWYRQAPGKERELVAAISKSGGSTYYADSVKGRFTISRDNAKNTVYLQMNSLKPEDTGVFYCAADYAHIGYDYDYWGQGTQVTVSS | high polyreactivity
QVQLVESGGGLVQAGGSLRLSFAASGFTFQWYGMGWSRQAPGKERELVAAINYSGGSTYYADSVKGSFTLSRDNAKNTVYLQMNSLKPEDTAVYYCAAEFYSWPWLRLAPWSMDYWGQGTQVTVSS | high polyreactivity
QVQLVESGGGLVQAGGSLRLSCAASGGTFHYYAMGWYRQAPGKERELVAAINRSGDSTYYADSVKGRFTISRDNAKNTVYLQMNSLKPEDTAVYYCAVSYYGADGNPFPHDYWGQGTQVTVSS | low polyreactivity
QVQLVESGGCLVQAGGSLRLSCAASGYTFLYNAMGWYRQAPGKERELVATNTRGGSTNYADSVKGRFTISRDNAKNTVYLQMYSLKPEDTAVYYCNKEAAPLGFVPSYYGRDYWGHGTQVTVSS | low polyreactivity
QVQLVESGGGLVQAGGSLRLSCAASGRTFEKNAMGWYRQAPGKERELVASITSVGSTDYADSVKGRFTISRDNAKNTVYLQMNSLKPEDTAVYYCAKTLGSQNYDFDYWGQGTQVTVSS | low polyreactivity
QVQLVESGGGLVQAGGSLRLSCAASGSTYYYAMGWYIQEPGKEREFVAAISASGGSTYYADSVKGRFTISRDNAKNTVYLQMNSLKPDDTAGYYCTPLGYGYWGQGTQVTVSS | high polyreactivity
QVQLVESGGGLYQAGGSLRLSCAASGRIFYCYAMGSYRQAPGKERELVAAISWRGGRTYYADSVKGRFTISRDNAKNTVYLQMNSLIPEDTAVYYCNTDFPPQGQLRNMSYWGQGTQVTVSS | high polyreactivity
QVQLVESGGGLVQAGGSLRLSCAASGSTIRAYGMGWYRQAPGKERELVAAISYSGDSTYYADSVKGRFTISRDNAKNTVYLQMNSLKPEDTAVYYCDADYSYRHYEYDYWGQGTQVTVSS | low polyreactivity
QVQLVESGGGLVQAGGSLRLCCAASGRIFAGNAMGWYRQAPGKEREFVAGISKGGGRTYYADSVKGRCTISRDNAKKTVYLQMNSLKPEDTAVYYCAALPPRASSDAGGWYVAEDYWGQGTQVTVSS | high polyreactivity
QVQLVESGGGLVQAGGSLRLSCAASGSIFGTNAMGWYRQAPGKERELVAAIDGGSTTYYADSVKGRFTISRDNAKNTVYLQMNSLKPEDTAVYYCAADGTRYLNDEGYAGYEYWGQGTQVTVSS | low polyreactivity
QVQLVESGGGLVQAGGSLRLSCAPSGSILRYYAMGWYRQAPGKEREFVAAISWSGTSTYYADSVKGRFTISRDIAKNTVYLQMNSLKPEDTAVYYCAARTYYVPYYYWGQGTQVTVSS | high polyreactivity
QVQLIESGGGLVQAGGSLRLSCAASGIIFYDYAMGWYRPAPGKERELVATITSGGSTNYADSVKGRFTISRDNAKNTVYLQMNSLKPEDTAVYYCAAGRGLILGGVYGYDYWGQGTQVTVSS | low polyreactivity
QVQLVESGGGLVQAGGSLRLSCAASGFTFFPNAMGWYRQAPGKERELFAAISRSDDNTFYADSVKGRITISRDNAKNTVYLQMNSLKPEDTAVYYCDKSAVPWRYPRGYDYWGQGTQVTVSS | low polyreactivity
QVQLVESGVGLVQAGGSLRLSCAASGITFGRNTMGWYRQAPGKERELVAAIDSGGNTYADSVKGRFTISRDNAKNTVYLQMNSLRSEDTAVYYCNARETHQSRYGYWGQGTQVTVSS | low polyreactivity
QVQLVESGGGLVQAGGSLRLSCAASGIIFSWYDMGWYRKAPGKERELVAAISSGDRTNYADSVKGRFTISRDNAKNTVYLQMNSLKPEDTAVYYCAADLFPIAGEYDYWGQGTQVTVSS | high polyreactivity
QVQLVESGGGLVQAGGSLRLSCAASGSTFDSNVMGWYRQAHGKERELLAAINYSGVRTYYADSVKGRFTISRDNAKNTVYLQMNSLKPEDTAVYYCNARLFSYRYPEGGYWGQGTQVTVSS | high polyreactivity
